Measurements reported in publication PMC5179029, “Selection and Characterization of Tau Binding ᴅ-Enantiomeric Peptides with Potential for Therapy of Alzheimer Disease” (PLoS ONE, 2016).
Square brackets hold non-standard residues; d marks the D form. Ends that are not written are not given here. * marks the point of attachment. 6FAM = O=C1OC2(c3ccc(O)cc3Oc3cc(O)ccc32)c2cc(C(=O)*)ccc21

Columns and labels:
[1] = target: T1, tau fibrils (tau-441, 2N4R, heparin induced) (Homo sapiens, UniProt P10636); experiment: ELISA binding of FAM-labeled peptides to tau fibrils; details: 5 μg/mL tau fibrils coated, 20 μg/mL FAM-labeled peptide, HRP anti-FITC detection
T1 construct: Full lengths tau protein expression and purification; made in house
Method: (§1) Tau protein [tau-441 (2N4R) MW 45.9 kDa], purified as described in the main text, was used to prepare tau fibrils, the preparation of the fibrils was performed according to Barghorn et al. with slight modifications: 30 µM tau protein were incubated for 48 hours with 20 µM heparin MW ≈ 5000 (Fisher scientific, Schwerte, Germany) in phosphate-buffered saline (PBS) pH 7.4 at room temperature.
(§2) Polystyrene 96-well microtiter plates (Greiner Bio-One GmbH, Frickenhausen, Germany) were coated with 100 µL/well of tau monomers or fibrils in concentration of 5 µg/mL respectively, followed by incubation for 1 hour at room temperature. As control, PBS pH 7.4 containing 1 % BSA (IgG free) (Roth, Karlsruhe, Germany) was used instead of tau protein solution. After washing three times with PBS-T (phosphate-buffered saline (pH 7.4) with (0.1 %) Tween 20), and blocking for 1 h at room temperature with 1 % BSA (IgG free) (Roth, Karlsruhe, Germany) in PBS, the plate was washed three times with PBS-T. Then the peptides APT-Lys(FAM)-NH2, KNT-Lys(FAM)-NH2, LPS-Lys(FAM)-NH2, TD28-Lys(FAM)-NH2, TD28rev-Lys(FAM)-NH2 as well as d-TLKIVW-Lys(FAM)-NH2 (JPT Peptide Technologies, Berlin, Germany) were dissolved in PBS-T and added at 100 µL/well in concentration of 20 µg/mL, respectively, the plate was allowed to react for 1 h at room temperature in the dark. Subsequently, the plate was washed 3 times with PBS-T, horseradish peroxidase-conjugated sheep anti-FITC secondary antibodies (Bio-Rad, Muenchen, Germany) were diluted 1:5000 in PBS-T; the antibodies were incubated on the plate 1 h at room temperature. After incubation, the plate was washed 3 times with PBS-T. Subsequently, the substrate solution was prepared as follows: 10 mg of 3,3',5,5'-tetramethylbenzidine (TMB) (Roth, Karlsruhe, Germany) was dissolved in 1 ml dimethylsulfoxide (DMSO), 62 µL from TMB solution were mixed with 9 mL distilled water, 1 mL 1 M sodium acetate buffer (pH 6) and 10 µL 3 % hydrogen peroxide. 100 µL of the prepared substrate solution were transferred to the according wells. Finally, the reaction was stopped with 100 µL/well of 20 % H2SO4, and the plate was read at 450 nm (Multiskan GO, Thermo scientific, Germany).

[2] = tested on: inducible N2aTau^4RDΔK280 cells; experiment: Penetration of FAM-labeled peptides into cells (confocal microscopy); assay type: cell-based; set-up: key to Cell penetration: membrane, 2 hours incubation / Cell penetration: membrane, 4 days incubation / Cell penetration: cytosol, 4 days incubation / Cell penetration: cytosol, 2 hours incubation / Cell penetration: nuclei, 4 days incubation / Cell penetration: nuclei, 2 hours incubation: +: Cell compartments where fluorescence of the label was detected are summarized here
Method: The peptides were obtained with a 6-Carboxyfluorescein (FAM) label, linked via a C-terminal lysine, to assay their ability to enter N2a cells expressing a variant of tau protein (construct tau^4RDΔK280, derived from the 4-repeat domain) in a regulatable fashion. The cells were incubated in the presence of the peptides for two hours (short term uptake) and four days (long term uptake and stability) at concentrations of 60 μM. After incubation the cells were fixed on glass cover slips and monitored by a confocal microscope (Fluoview 1000, Olympus). The localizations of the D-peptides were detected by their FAM-label (excitation: 488 nm, emission: 520 nm). In addition, cell nuclei were stained with TOPRO3 dye (excitation: 633 nm, emission: 660–670 nm). Representative pictures were taken with magnifications of 10-times for overview and 60- and 120-times for more detailed analysis.

[3] = target: T2, tau monomers (tau-441, 2N4R) (Homo sapiens, UniProt P10636); experiment: ELISA binding of FAM-labeled peptides to tau monomers; details: 20 μg/mL FAM-labeled peptide; for Binding to tau monomers (ELISA, in words): 5 μg/mL tau monomers coated, HRP anti-FITC detection; for ELISA signal, ranking among peptides: tau monomers and fibrils
T2 construct: Full lengths tau protein expression and purification; made in house
Method: as §1, §2

tau (Homo sapiens) = details: cited from earlier work
[4] = target: tau^3RD (three repeat domain construct of tau protein, K19) (human)
[5] = 60 μM FAM labeled peptide, N2aTau^4RDΔK280 cells, fixed cells, confocal microscope, FAM fluorescence
[6] = 60 μM FAM labeled peptide, N2aTau^4RDΔK280 cells, fixed cells, confocal microscope, FAM fluorescence, nuclei stained with TOPRO3

T1 sequence (P10636 1-441 isoform P10636-8): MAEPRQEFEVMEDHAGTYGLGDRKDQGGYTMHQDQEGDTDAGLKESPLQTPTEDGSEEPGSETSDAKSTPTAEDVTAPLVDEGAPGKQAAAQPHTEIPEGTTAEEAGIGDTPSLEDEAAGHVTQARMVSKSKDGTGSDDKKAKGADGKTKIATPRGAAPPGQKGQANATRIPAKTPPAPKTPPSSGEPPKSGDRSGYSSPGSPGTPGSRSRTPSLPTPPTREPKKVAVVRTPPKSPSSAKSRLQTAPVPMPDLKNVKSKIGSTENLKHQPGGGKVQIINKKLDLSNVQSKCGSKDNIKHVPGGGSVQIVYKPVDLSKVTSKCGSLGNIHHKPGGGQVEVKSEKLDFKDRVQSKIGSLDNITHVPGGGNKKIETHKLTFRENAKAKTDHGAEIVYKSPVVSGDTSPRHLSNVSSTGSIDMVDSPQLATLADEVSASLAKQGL
T2 sequence (P10636 1-441 isoform P10636-8): as above
Sequence of tau^3RD (three repeat domain construct of tau protein, K19) (human) (P10636 other isoform, or with tags, fused parts or gaps): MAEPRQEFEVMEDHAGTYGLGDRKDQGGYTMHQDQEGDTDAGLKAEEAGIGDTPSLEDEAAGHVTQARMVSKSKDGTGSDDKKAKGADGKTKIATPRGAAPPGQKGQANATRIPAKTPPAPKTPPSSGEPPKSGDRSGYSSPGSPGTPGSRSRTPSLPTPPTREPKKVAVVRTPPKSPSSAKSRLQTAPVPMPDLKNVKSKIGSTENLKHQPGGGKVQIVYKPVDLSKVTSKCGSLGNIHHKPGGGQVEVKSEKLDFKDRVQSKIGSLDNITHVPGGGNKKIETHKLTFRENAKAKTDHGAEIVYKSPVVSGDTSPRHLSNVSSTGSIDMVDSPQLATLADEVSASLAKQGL

Row | Molecule | Binding to tau fibrils (ELISA, in words) [1] | Cell penetration: cytosol, 2 hours incubation [2, 5] | Cell penetration: cytosol, 4 days incubation [2, 5] | Cell penetration: membrane, 2 hours incubation [2, 5] | Cell penetration: membrane, 4 days incubation [2, 5] | Cell penetration: nuclei, 2 hours incubation [2, 6] | Cell penetration: nuclei, 4 days incubation [2, 6] | Binding to tau monomers (ELISA, in words) [3] | Cell penetration, overall judgement (in words) ([2]; 60 μM FAM-labeled peptide, N2a cells, up to 4 days) | ELISA signal, ranking among peptides [3] | Kd (tau (Homo sapiens)) | half maximal effect concentration, inhibition of tau^3RD (K19) fibril formation (K19 with K19), ThS fluorescence in vitro [4]
1 | TD28rev-Lys(FAM)-NH2: TD28rev with 6-Carboxyfluorescein (FAM) label linked via a C-terminal lysine ([dP][dP][dY][dY][dL][dR][dM][dQ][dL][dS][dT][dT]K(6FAM)-NH2; N-terminus assumed; SMILES CSCC[C@@H](NC(=O)[C@@H](CCCNC(=N)N)NC(=O)[C@@H](CC(C)C)NC(=O)[C@@H](Cc1ccc(O)cc1)NC(=O)[C@@H](Cc1ccc(O)cc1)NC(=O)[C@H]1CCCN1C(=O)[C@H]1CCCN1)C(=O)N[C@H](CCC(N)=O)C(=O)N[C@H](CC(C)C)C(=O)N[C@H](CO)C(=O)N[C@@H](C(=O)N[C@@H](C(=O)N[C@@H](CCCCNC(=O)c1ccc2c(c1)C1(OC2=O)c2ccc(O)cc2Oc2cc(O)ccc21)C(N)=O)[C@H](C)O)[C@H](C)O) | binding could be demonstrated | + | + | + | + | + | + | binding could be demonstrated | – | – | – | –
2 | APT-Lys(FAM)-NH2: APT with 6-Carboxyfluorescein (FAM) label linked via a C-terminal lysine ([dA][dP][dT][dL][dL][dR][dL][dH][dS][dL]G[dA]K(6FAM)-NH2; N-terminus assumed; SMILES CC(C)C[C@@H](NC(=O)[C@@H](CO)NC(=O)[C@@H](Cc1c[nH]cn1)NC(=O)[C@@H](CC(C)C)NC(=O)[C@@H](CCCNC(=N)N)NC(=O)[C@@H](CC(C)C)NC(=O)[C@@H](CC(C)C)NC(=O)[C@H](NC(=O)[C@H]1CCCN1C(=O)[C@@H](C)N)[C@H](C)O)C(=O)NCC(=O)N[C@H](C)C(=O)N[C@@H](CCCCNC(=O)c1ccc2c(c1)C1(OC2=O)c2ccc(O)cc2Oc2cc(O)ccc21)C(N)=O) | binding could be demonstrated | – | + | + | + | – | – | binding could be demonstrated | worst cell penetration properties | – | – | –
3 | TD28-Lys(FAM)-NH2: TD28 with 6-Carboxyfluorescein (FAM) label linked via a C-terminal lysine ([dT][dT][dS][dL][dQ][dM][dR][dL][dY][dY][dP][dP]K(6FAM)-NH2; N-terminus assumed; SMILES CSCC[C@@H](NC(=O)[C@@H](CCC(N)=O)NC(=O)[C@@H](CC(C)C)NC(=O)[C@@H](CO)NC(=O)[C@H](NC(=O)[C@H](N)[C@H](C)O)[C@H](C)O)C(=O)N[C@H](CCCNC(=N)N)C(=O)N[C@H](CC(C)C)C(=O)N[C@H](Cc1ccc(O)cc1)C(=O)N[C@H](Cc1ccc(O)cc1)C(=O)N1CCC[C@@H]1C(=O)N1CCC[C@@H]1C(=O)N[C@@H](CCCCNC(=O)c1ccc2c(c1)C1(OC2=O)c2ccc(O)cc2Oc2cc(O)ccc21)C(N)=O) | binding could be demonstrated | + | + | + | + | – | + | binding could be demonstrated | – | highest | – | –
4 | KNT-Lys(FAM)-NH2: KNT with 6-Carboxyfluorescein (FAM) label linked via a C-terminal lysine ([dK][dN][dT][dP][dQ][dH][dR][dK][dL][dR][dL][dS]K(6FAM)-NH2; N-terminus assumed; SMILES CC(C)C[C@@H](NC(=O)[C@@H](CCCNC(=N)N)NC(=O)[C@@H](CC(C)C)NC(=O)[C@@H](CCCCN)NC(=O)[C@@H](CCCNC(=N)N)NC(=O)[C@@H](Cc1c[nH]cn1)NC(=O)[C@@H](CCC(N)=O)NC(=O)[C@H]1CCCN1C(=O)[C@H](NC(=O)[C@@H](CC(N)=O)NC(=O)[C@H](N)CCCCN)[C@H](C)O)C(=O)N[C@H](CO)C(=O)N[C@@H](CCCCNC(=O)c1ccc2c(c1)C1(OC2=O)c2ccc(O)cc2Oc2cc(O)ccc21)C(N)=O) | binding could be demonstrated | + | + | + | + | – | – | binding could be demonstrated | – | highest | – | –
5 | D-peptide D-TLKIVW | – | – | – | – | – | – | – | – | – | – | 2000 nM | –
6 | TTSLQMRLYYPP [TL28] | – | – | – | – | – | – | – | – | – | – | – | > 200 µM
